Patent US20250051455A1 (Hoffmann-La Roche, published 2025)

Key:
[1] = target: T1, recombinant soluble human HLA-G β2M MHC class I complex, trimer (human); test: competition ELISA, antibody 44 nM; competitor coated ILT2-Fc
T1 construct: Non-biotinylated; also called HLA-G Trimer; trimeric HLA-G
Method: (§1) The ELISA was set up by coating the Fc tagged ILT2 and ILT4 respectively to Maxisorp microtiter plates. After incubation and washing steps, the respective antibodies were added at a concentration of 100 nM. Soluble His tagged monomeric, dimeric or trimeric HLA-G was added to the wells. After incubation and washing steps, detection of bound receptor was carried out by anti-His-antibody-POD conjugates.
(§2) The above tables summarize the blocking of interaction between rec. HLA-G proteins (monomer and oligomers) to its receptors ILT2 and ILT4 by the described HLAG antibodies at a concentration of 110 nM (*HLAG-0090 was tested at a concentration of 44 nM) as assessed by ELISA. Shown are the % inhibitions of the HLA-G/receptor interaction (for ILT2 and ILT4). The less pronounced ILT4 inhibition depends on the major β2M dependent interaction of this receptor.

[2] = target: T2, recombinant soluble human HLA-G β2M MHC class I complex, dimer (human); test: as above
T2 construct: Non-biotinylated; also called HLA-G Dimer; dimeric HLA-G
Method: as §1, §2

[3] = target: T3, recombinant soluble human HLA-G β2M MHC class I complex, monomer (human); test: as above
T3 construct: His tagged; biotinylated where coated on streptavidin plates, non-biotinylated in SPR; also called HLA-G-0003; wt HLA-G (monomer)
Method: as §1, §2

[4] = target: T1, recombinant soluble human HLA-G β2M MHC …; test: competition ELISA, antibody 44 nM; competitor coated ILT4-Fc
Method: as §1, §2

[5] = target: T2, recombinant soluble human HLA-G β2M MHC …; test: as above
Method: as §1, §2

[6] = target: T3, recombinant soluble human HLA-G β2M MHC …; test: as above
Method: as §1, §2

[7] = target: T4, modified human HLA-G β2M MHC class I complex (HLA-G specific amino acids replaced by HLA-A consensus amino … (human)); test: ELISA, biotinylated degrafted HLA-G on streptavidin plate (no EC50; Max. OD 0.2)
T4 construct: Counter antigen: single-chain fusion of peptide, beta-2 microglobulin and HLA-G in which 14 HLA-G unique surface positions were mutated to an HLA-A consensus; also called degrafted HLA-G; HLA-G-0007
Method: (§3) Streptavidin coated plates (Nunc, MicroCoat #11974998001) were coated with 25 μl/well biotinylated human degrafted HLA-G at a concentration of 250 ng/ml and incubated at 4° C. overnight. After washing (3×90 μl/well with PBST-buffer) 25 μl anti-HLA-G samples (1:3 dilution in OSEP buffer) or rat serum (1:600 dilution in OSEP) were added and incubated 1 h at RT. After washing (3×90 μl/well with PBST-buffer) 25 μl/well of a mixture of goat-anti-rat IgG1-POD (Bethyl #A110-106P), goat-anti-rat IgG2a-POD (Bethyl #A110-109P) and goat-anti-rat IgG2b-POD (Bethyl #A110-111P) 1:10000 in OSEP was added and incubated at RT for 1 h on shaker. After washing (6×90 μl/well with PBST-buffer) 25 μl/well TMB substrate (Roche, 11835033001) was added and incubated until OD 2-3. Measurement took place on a Tecan Safire 2 instrument at 370/492 nm.

[8] = target: T4, modified human HLA-G β2M MHC class I …; test: ELISA, biotinylated degrafted HLA-G on streptavidin plate (no EC50; Max. OD 0.13)
Method: as §3

[9] = target: T4, modified human HLA-G β2M MHC class I …; test: ELISA, biotinylated degrafted HLA-G on streptavidin plate (no EC50; Max. OD 0.15)
Method: as §3

B1: HLA-G-0090 (antibody, V domains shown)
VH: QVQLQQSGPGLLKPSQTLSLTCAISGDSVSSNRAAWNWIRQSPSRGLEWLGRTYYRSKWYNDYAVSVQGRITLIPDTSKNQFSLRLNSVTPEDTAVYYCASVRAVAPFDYWGQGVLVTVSS
VL: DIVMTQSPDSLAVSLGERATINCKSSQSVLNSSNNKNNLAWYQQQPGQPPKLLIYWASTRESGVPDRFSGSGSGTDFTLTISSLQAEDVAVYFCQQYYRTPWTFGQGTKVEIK
notes: Human antibody from humanized OmniRat (OMT) rats
% inhibition of ILT2 binding [1]: 99%
% inhibition of ILT2 binding [2]: 100%
% inhibition of ILT2 binding [3]: 92%
% inhibition of ILT4 binding [4]: 47%
% inhibition of ILT4 binding [5]: 31%
% inhibition of ILT4 binding [6]: 31%
binding result [7]: no binding

B2: HLA-G-0031 (antibody, V domains shown)
VH: QVKLMQSGAALVKPGTSVKMSCNASGYTFTDYWVSWVKQSHGKRLEWVGEISPNSGASNFDENFKDKATLTVDKSTSTAYMELSRLTSEDSAIYYCTRSSHGSFRWFAYWGQGTLVTVSS
VL: AIVLNQSPSSIVASQGEKVTITCRASSSVSSNHLHWYQQKPGAFPKFVIYSTSQRASGIPSRFSGSGSGTSYSFTISRVEAEDVATYYCQQGSSNPYTFGAGTKLELK
notes: Rat monoclonal antibody obtained from CD rats
binding result [8]: no binding

B3: HLA-G-0039 (antibody, V domains shown)
VH: EVQLLESGGGLVQPGGSLRLSCAASGFTFSSYAMNWVRQAPGKGLEWVSVISGSGVSTYYADSVKGRFTISRDNSRNTLSLQMNSLRAEDTAVYYCAKDGSYNYGYGDYFDYWGQGTLVTVSS
VL: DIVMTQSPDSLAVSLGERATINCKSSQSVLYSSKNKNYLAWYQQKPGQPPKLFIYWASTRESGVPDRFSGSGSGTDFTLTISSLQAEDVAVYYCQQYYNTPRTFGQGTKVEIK
notes: as for B1
binding result [8]: no binding

B4: HLA-G-0041 (antibody, V domains shown)
VH: EVQLLESGGGLVQPGGSLRLSCAASGFTFSTYGMSWVRQAPGKGLEWVSVISGGGVSTYYADSVKGRFTISRDNSKNTLYLQMNRLRAEDTAVYYCAKDGSYNYGYGDYFDYWGQGTLVTVSS
VL: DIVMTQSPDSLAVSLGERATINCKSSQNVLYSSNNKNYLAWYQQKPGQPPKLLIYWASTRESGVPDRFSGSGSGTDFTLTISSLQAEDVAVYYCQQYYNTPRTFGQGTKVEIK
notes: as for B1
binding result [9]: no binding
